Drawing on patent publication US20240053349A1, this text covers Plasma % Bound and EC50 for 15 molecules.

Square brackets hold non-standard residues; d marks the D form. Primed or numbered codes have the meaning given here. Side chains are listed from the residue outwards. Ends that are not written are not given here. * marks the point of attachment. DOTA = O=C(O)CN1CCN(CC(=O)O)CCN(CC(=O)*)CCN(CC(=O)O)CC1; Biotin = O=C1N[C@H]2[C@H](CS[C@H]2CCCCC(=O)*)N1; Butanoyl(4-(4-I-phenyl)) = O=C(CCCc1ccc(I)cc1)*; Butanoyl(4-(4-MePh)) = Cc1ccc(CCCC(=O)*)cc1; FB = fluorobenzaldehyde oxime; Folate = pteroic acid on Glu; PEG3′ = PEG3 spacer; PEG7′ = PEG7 spacer; AO = aminooxy

The target in assay [1] is human plasma proteins. Kind of assay: plasma protein binding; measured on the FB form.
Assay [2] addresses mouse plasma proteins (CD-1 mouse). Kind of assay: plasma protein binding; measured on the FB form.
The target of assay [3] is human plasma proteins. Put plainly: plasma protein binding, dialysis 4 h at 37 C, 2 µM, LC-MS/MS.
The target of assay [4] is mouse plasma proteins (CD-1 mouse). The description is as above.
Assay [5] concerns the target FOLR1 human recombinant protein (human) (UniProt P15328). Kind of assay: ELISA on FOLR1.
For assay [6] the target is unchanged. Put plainly: ELISA on FOLR1, linker screen.

Sequence of FOLR1 human recombinant protein (human) (P15328 25-233 limits assumed): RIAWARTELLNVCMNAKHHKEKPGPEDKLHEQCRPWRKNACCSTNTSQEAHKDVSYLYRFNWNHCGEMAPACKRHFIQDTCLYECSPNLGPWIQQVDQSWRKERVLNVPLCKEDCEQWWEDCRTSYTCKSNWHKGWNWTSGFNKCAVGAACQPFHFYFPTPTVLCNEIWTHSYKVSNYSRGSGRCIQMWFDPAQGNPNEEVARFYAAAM

B1: Fol-hshta-PEG3-Lys(FB) (compound #2) (peptide)
peptide: folate-[dH][dS][dH][dT][dA][PEG3′]K([AO-FB])
modifications: triazole (positions not given here); numbers in words are those of the source; also: triazole macrocycle via Pra and Az4, places not given here
B1: the Plasma % Bound in the assay with human plasma proteins [1] is 43%; in assay [2] it was 20.2%; with human plasma proteins [3], 43%; in assay [4], 20.2%.

B2: Folate-hshta-PEG3-Lys(MPBA)-Lys(DOTA) (compound #2809) (peptide)
peptide: [dH][dS][dH][dT][dA][PEG3′]K(Butanoyl(4-(4-MePh)))K(DOTA)-OH
modifications: triazole (positions not given here); not fully specified (N-terminus); printed as folate-hshta-PEG3-Lys(MPBA)-Lys(DOTA); numbers in words are those of the source; also: triazole macrocycle via Pra and Az4, places not given here
As to B2, the Plasma % Bound in the assay with human plasma proteins [3] was 83.3%; in assay [4], 92.1%.

B3: Fol-hshta-Lys(4-MPBA)-Gly-Phe-Lys(PEG3-DOTA) (compound #3302) (peptide)
peptide: [dH][dS][dH][dT][dA]KGFK([PEG3′-DOTA])
modifications: triazole (positions not given here); not fully specified (residue 6, N-terminus); also: triazole macrocycle via Pra and Az4, places not given here
Consider B3, for which the Plasma % Bound with human plasma proteins [3] was 94.9%; in assay [4], 96.5%.

B4: Folate-hshta-Lys(IPBA)-M-V-Lys(DOTA) (compound #1306) (peptide)
peptide: folate-[dH][dS][dH][dT][dA]K(Butanoyl(4-(4-I-phenyl)))MVK(DOTA)-OH
modifications: triazole (positions not given here); not fully specified; also: triazole macrocycle via Pra and Az4, places not given here
For the molecule B4, the results for the Plasma % Bound (in the assay with human plasma proteins [3]; in assay [4]) were 97.3% and 97.1%, respectively.

B5: Folate-hshta-Lys(IPBA)-Gly-Phe-Lys(DOTA) (compound #1307) (peptide)
peptide: [dH][dS][dH][dT][dA]K(Butanoyl(4-(4-I-phenyl)))GFK(DOTA)
modifications: triazole (positions not given here); not fully specified (N-terminus); also: triazole macrocycle via Pra and Az4, places not given here
Turning to B5, the Plasma % Bound with human plasma proteins [3] turned out to be 99.5%; in assay [4] it was 99.6%.

B6: Folate-hshta-Lys(MPBA)-Gly-Phe-Lys(DOTA) (compound #6305) (peptide)
peptide: [dH][dS][dH][dT][dA]K(Butanoyl(4-(4-MePh)))GFK(DOTA)-OH
modifications: triazole (positions not given here); not fully specified (N-terminus); also: triazole macrocycle via Pra and Az4, places not given here
Regarding B6, the Plasma % Bound with human plasma proteins [3] amounted to 98.3%; in assay [4], 96.3%.

B7: Fol-hshta-PEG3-Lys(DOTA) (compound #1189) (peptide)
peptide: folate-[dH][dS][dH][dT][dA][PEG3′]K(DOTA)-OH
modifications: triazole (positions not given here); not fully specified; printed as folate-hshta-PEG3-Lys(DOTA); numbers in words are those of the source; also: triazole macrocycle via Pra and Az4, places not given here
For B7, the figures for the Plasma % Bound (with human plasma proteins [3]; in assay [4]) were 46% and 29.5%, respectively.

B8: folate-hshta Tz heterobiligand (peptide)
peptide: Biotin-[dH][dS][dH][dT][dA]
modifications: triazole (positions not given here); also: triazole macrocycle via Pra and Az4, places not given here, folate joined through PEG linker and triazole, site not given here
As to B8, in assay [5], the EC50 turned out to be 0.107 nM.

B9: deryt (SEQ ID NO:20) PCC alone (peptide)
peptide: [dD][dE][dR][dY][dT]
modifications: triazole (positions not given here); also: flanked by Pra and Az4 joined by 1,2,3-triazole, sides not given here
As to B9, in assay [5], the EC50 is 10000 nM.

B10: Folate-deryt heterobiligand (construct not specified) (peptide)
peptide: [dD][dE][dR][dY][dT]
modifications: triazole (positions not given here); also: triazole macrocycle via Pra and Az4, places not given here, folate conjugated, linker and site not given here
Turning to B10, the 50% effective concentration (EC50) in assay [6] turned out to be 0.28 nM.

B11: Fol-hshta-Gly-Phe-Lys(AO) (compound #3303) (peptide)
peptide: folate-[dH][dS][dH][dT][dA]GFK(AO)
modifications: triazole (positions not given here); not fully specified; printed as Fol-hshta-Gly-Phe-Lys(AO); also: triazole macrocycle via Pra and Az4, places not given here
Take B11: the Plasma % Bound is 81% in the assay with human plasma proteins [1] and 75.5% in assay [2].

B12: Folate-PEG7-hshta (peptide)
peptide: {folate-PEG7′}-[dH][dS][dH][dT][dA]
modifications: triazole (positions not given here); also: triazole macrocycle via Pra and Az4, places not given here, biotin label, site not given here
In the case of B12, in assay [6], the EC50 was found to be 1 nM.

B13: Folate-hshta-G-F-K(DOTA)-OH (Indi 7327, compound #7327) (peptide)
peptide: Folate-[dH][dS][dH][dT][dA]GFK(DOTA)-OH
modifications: not fully specified (bridges); printed as folate-hshta-Gly-Phe-Lys(DOTA); also: triazole macrocycle closed by Pra and Lys(N3)/Az4 flanking hshta, not in the given chain
Consider B13, for which the values for the Plasma % Bound (with human plasma proteins [3]; in assay [4]) were 40.3% and 40.9%, respectively.

B14: Fol-hshta-PEG3-Gly-Phe-Lys(DOTA) (compound #6307) (peptide)
peptide: folate-[dH][dS][dH][dT][dA][PEG3′]GFK(DOTA)
modifications: triazole (positions not given here); numbers in words are those of the source; also: triazole macrocycle via Pra and Az4, places not given here
For the molecule B14, the results for the Plasma % Bound (in the assay with human plasma proteins [3]; in assay [4]) were 41.3% and 40.6%, respectively.

B15: folate-kyeet Tz heterobiligand (peptide)
peptide: Biotin-[dK][dY][dE][dE][dT]
modifications: triazole (positions not given here); also: folate joined via PEG linker and triazole (Tz), site not placed, triazole macrocycle via Pra and Az4 flanking kyeet, not placed in chain
Regarding B15, the EC50 in assay [5] stood at 0.149 nM.
